T1: FGFR2 IIIb-Fc (human)
T1 construct: also called FGFR2IIIb beta-ECD; FGFR2IIIb-hFc
T1 chain: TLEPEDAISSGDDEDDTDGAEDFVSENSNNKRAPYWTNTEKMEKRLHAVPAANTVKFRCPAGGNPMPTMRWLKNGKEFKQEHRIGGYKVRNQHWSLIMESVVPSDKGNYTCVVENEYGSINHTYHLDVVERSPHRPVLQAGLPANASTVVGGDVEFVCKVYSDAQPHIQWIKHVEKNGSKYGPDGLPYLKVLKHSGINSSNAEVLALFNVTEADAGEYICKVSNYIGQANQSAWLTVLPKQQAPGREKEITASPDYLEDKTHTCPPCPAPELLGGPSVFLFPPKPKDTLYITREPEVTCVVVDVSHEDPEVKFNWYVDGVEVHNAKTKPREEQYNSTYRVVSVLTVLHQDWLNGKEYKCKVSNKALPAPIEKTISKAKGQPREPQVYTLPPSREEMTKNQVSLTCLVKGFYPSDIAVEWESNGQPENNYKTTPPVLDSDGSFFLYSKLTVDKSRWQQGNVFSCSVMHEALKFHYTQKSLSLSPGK

T2: 128AA-mFc (128-amino acid loop-3 fragment of FGFR2IIIc fused to mouse Fc) (human)
T2 chain: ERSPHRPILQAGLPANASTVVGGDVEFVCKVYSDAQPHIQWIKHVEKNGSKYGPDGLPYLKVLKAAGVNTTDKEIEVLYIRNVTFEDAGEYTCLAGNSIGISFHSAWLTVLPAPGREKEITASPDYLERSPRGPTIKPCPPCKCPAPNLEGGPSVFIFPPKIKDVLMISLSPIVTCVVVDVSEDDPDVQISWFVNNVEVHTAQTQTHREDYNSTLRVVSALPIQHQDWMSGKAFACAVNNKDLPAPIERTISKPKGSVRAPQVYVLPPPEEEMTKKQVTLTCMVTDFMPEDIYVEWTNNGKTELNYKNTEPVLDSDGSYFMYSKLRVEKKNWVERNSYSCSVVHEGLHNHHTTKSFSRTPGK

T3: FGF8b (UniProt P55075-3 23-215)
T3 construct: Coated on ELISA plates; also called ligand protein FGF8b
T3 sequence (looked up): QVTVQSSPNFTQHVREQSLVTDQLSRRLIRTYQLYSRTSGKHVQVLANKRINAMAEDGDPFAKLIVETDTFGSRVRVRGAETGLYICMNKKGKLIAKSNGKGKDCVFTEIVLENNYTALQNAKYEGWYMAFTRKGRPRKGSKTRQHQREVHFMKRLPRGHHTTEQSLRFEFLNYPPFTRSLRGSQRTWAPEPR

T4: Flag-FGFR2-IIIb expressed on CHO cells (human, UniProt P21802 22-821)
T4 construct: whole, on cells; also called CHO-FGFR2-IIIb; FGFR2-IIIb-expressing CHO cells; not shown: Flag-tag at the N-terminus
T4 chain: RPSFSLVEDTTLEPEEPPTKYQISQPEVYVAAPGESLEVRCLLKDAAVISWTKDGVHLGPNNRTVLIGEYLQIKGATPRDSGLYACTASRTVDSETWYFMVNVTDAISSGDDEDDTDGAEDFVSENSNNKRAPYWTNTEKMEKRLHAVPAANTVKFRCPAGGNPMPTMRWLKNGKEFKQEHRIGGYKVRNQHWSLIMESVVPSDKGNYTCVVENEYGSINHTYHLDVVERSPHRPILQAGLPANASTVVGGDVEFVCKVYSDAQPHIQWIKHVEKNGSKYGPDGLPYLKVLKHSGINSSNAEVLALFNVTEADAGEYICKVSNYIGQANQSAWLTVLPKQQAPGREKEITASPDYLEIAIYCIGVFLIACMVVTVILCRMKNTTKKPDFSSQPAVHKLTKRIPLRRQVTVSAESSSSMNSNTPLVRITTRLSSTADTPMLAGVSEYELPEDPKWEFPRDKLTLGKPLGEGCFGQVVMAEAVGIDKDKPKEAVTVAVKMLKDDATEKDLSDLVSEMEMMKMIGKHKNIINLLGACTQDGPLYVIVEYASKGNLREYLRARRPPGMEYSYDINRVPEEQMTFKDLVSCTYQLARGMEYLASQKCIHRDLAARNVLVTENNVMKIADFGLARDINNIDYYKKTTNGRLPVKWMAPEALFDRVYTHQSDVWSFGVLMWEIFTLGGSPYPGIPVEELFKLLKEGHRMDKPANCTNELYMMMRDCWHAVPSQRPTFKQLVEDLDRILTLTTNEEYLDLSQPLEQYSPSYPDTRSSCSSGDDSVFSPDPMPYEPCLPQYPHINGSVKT

B1: human scFv clone 6, soluble (scFv)
scFv: QSVLTQPPSVSAAPGQKVTISCSGSSSNIGNNYVSWYQQLPGTAPKLLIYDNNKRPSGIPDRFSDSKSGTSATLGITGLQTGDEADYYCGTWDSSLSAVVFGGGTKLTVLGSGGSTITSYNVYYTKLSSSGTEVQLVQSGAEVKKPGSSVKVSCKASGGTFSSYAISWVRQAPGQGLEWMGRIIPILGIANYAQKFQGRVTITADKSTSTAYMELSSLRSEDTAVYYCARDPLLWSYFDYWGQGTLVTVSS
notes: Tags are not described; also called scFv-6; Atto-HuMab-06
B2: human scFv clone 6, phage-displayed (scFv)
scFv: QSVLTQPPSVSAAPGQKVTISCSGSSSNIGNNYVSWYQQLPGTAPKLLIYDNNKRPSGIPDRFSDSKSGTSATLGITGLQTGDEADYYCGTWDSSLSAVVFGGGTKLTVLGSGGSTITSYNVYYTKLSSSGTEVQLVQSGAEVKKPGSSVKVSCKASGGTFSSYAISWVRQAPGQGLEWMGRIIPILGIANYAQKFQGRVTITADKSTSTAYMELSSLRSEDTAVYYCARDPLLWSYFDYWGQGTLVTVSS
notes: also called scFv-6; Atto-HuMab-06
B3: soluble FGFR2 IIIc-Fc fusion protein (Fc fusion)
chain: RPSFSLVEDTTLEPEGAPYWTNTEKMEKRLHAVPAANTVKFRCPAGGNPMPTMRWLKNGKEFKQEHRIGGYKVRNQHWSLIMESVVPSDKGNYTCVVENEYGSINHTYHLDVVERSPHRPILQAGLPANASTVVGGDVEFVCKVYSDAQPHIQWIKHVEKNGSKYGPDGLPYLKVLKAAGVNTTDKEIEVLYIRNVTFEDAGEYTCLAGNSIGISFHSAWLTVLPAPGREKEITASPDYLERSDKTHTCPPCPAPELLGGPSVFLFPPKPKDTLYITREPEVTCVVVDVSHEDPEVKFNWYVDGVEVHNAKTKPREEQYNSTYRVVSVLTVLHQDWLNGKEYKCKVSNKALPAPIEKTISKAKGQPREPQVYTLPPSREEMTKNQVSLTCLVKGFYPSDIAVEWESNGQPENNYKTTPPVLDSDGSFFLYSKLTVDKSRWQQGNVFSCSVMHEALKFHYTQKSLSLSPGK
notes: Extracellular domain of human FGFR2 beta (IIIc), aa 1-262, Arg-Ser linker, human IgG1 Fc; signal peptide 1-21 left out; also called FGFR2 beta-ECD; FGFR2c beta-EDC
B4: dcFv-8 (Fc-fusion of human scFv Clone 8) (Fc fusion)
chain: QSVLTQPPSVSAAPGQKVTISCSGSSSNIGNNYVSWYQQLPGTAPKLLIYDNNKRPSGIPDRFSGSKSGTSATLAISGLQSEDEADYYCAAWDDSLNGVVFGGGTKLTVLGSGGSTITSYNVYYTKLSSSGTQVQLVQSGAEVKKPGSSVKVSCKASGGTFSSYAISWVRQAPGQGLEWMGRIIPIFGTANYAQKFQGRVTITADESTSTAYMELNSLRSEDTAVYYCARDRWDWNDAFDIWGQGTMVTVSS
notes: Bivalent fusion construct to human IgG Fc; also called clone dcFv-8; not shown: human IgG1 Fc of vector pFUSE-hIgG1e2-Fc2(IL2ss) (Invivogen)
B5: human scFv clone 8, soluble (scFv)
scFv: QSVLTQPPSVSAAPGQKVTISCSGSSSNIGNNYVSWYQQLPGTAPKLLIYDNNKRPSGIPDRFSGSKSGTSATLAISGLQSEDEADYYCAAWDDSLNGVVFGGGTKLTVLGSGGSTITSYNVYYTKLSSSGTQVQLVQSGAEVKKPGSSVKVSCKASGGTFSSYAISWVRQAPGQGLEWMGRIIPIFGTANYAQKFQGRVTITADESTSTAYMELNSLRSEDTAVYYCARDRWDWNDAFDIWGQGTMVTVSS
notes: Tags are not described; also called scFv-8; Atto-HuMab-08

How the values were obtained:
[1] = biological target: T1, FGFR2 IIIb-Fc; assay: ELISA: soluble scFv on coated protein (2 ug/ml)
[2] = biological target: human ovalbumin (OA) (human); assay: ELISA: soluble scFv on coated protein (2 ug/ml)
[3] = biological target: B3; assay: ELISA: soluble scFv on coated protein (2 ug/ml)
[4] = biological target: T2, 128AA-mFc (128-amino acid loop-3 …); assay: phage ELISA on coated protein
[5] = biological target: human ovalbumin (OA) (human); assay: phage ELISA on coated protein
[6] = biological target: T5, human ferritin (Fer) (human, UniProt P02794 2-183; P02792 2-175, Natural ferritin is a 24-subunit shell of H and L chains in a tissue-dependent ratio, with an iron core. The letters carry one copy of each subunit.); assay: phage ELISA on coated protein
T5 construct: also called Feritin

[7] = biological target: T5, human ferritin (Fer); assay: phage ELISA on coated protein; remark: listed apart in the source
[8] = biological target: T6, dcFv-01 (Fc-fusion of human scFv Clone 1) (human); assay: competition ELISA: antibody pre-incubated with FGFR2IIIc-Fc, then added to ligand-coated plate (legend paragraph 175: FGF8; paragraph 640: FGF2); bound receptor detected
T6 construct: scFv-1 fragment fused to the N-terminus of human IgG1 Fc; bivalent; also called dcFv-1; clone dcFv-1; not shown: human IgG1 Fc of vector pFUSE-hIgG1e2-Fc2(IL2ss) (Invivogen)

[9] = biological target: T3, FGF8b; assay: ELISA: receptor Fc fusion (4 ug/ml) on coated FGF8b, anti-human IgG Fc-HRP
[10] = biological target: B3; assay: competition ELISA: antibody pre-incubated with FGFR2IIIc-Fc, then added to ligand-coated plate (legend paragraph 175: FGF8; paragraph 640: FGF2); bound receptor detected
[11] = biological target: T4, Flag-FGFR2-IIIb expressed on CHO cells; assay: immunocytochemical staining of CHO cells transiently expressing FGFR2IIIb
[12] = biological target: T1, FGFR2 IIIb-Fc; assay: ELISA with soluble scFv, plate coated with FGFR2 IIIb Fc fusion (whole extracellular domain)

Binder	OD (450 nm) [1]	OD (450 nm) [2]	OD (450 nm) [3]	binding result [11]	also measured
B1	0.012	0.015	0.571	–	–
B2	–	–	–	–	OD (450 nm) [4]: 0.106; OD (450 nm) [5]: 0.018; OD (450 nm) [6]: 0.006; binding result [7]: no binding
B3	–	–	–	–	binding result [8]: binds; binding result [9]: binds
B4	–	–	–	no binding	IC50 (read off the curve) [10]: ~0.3 nM
B5	0.003	0.028	0.8	no binding	binding result [12]: no binding

From US20130142802A1 (published 2013)
